Test [1] has as its target T1, human FcγRIIIa type V (allotype V158) extracellular domain with C-terminal His tag (human, UniProt P08637 17-208).
T1 construct: also called FcγRIIIaV; FcγRIIIa V type
The experiment in a line: SPR (Biacore), captured antibody, FcγR analyte.

In test [2] the target is T2, FcγRIa extracellular domain with C-terminal His tag (human, UniProt P12314 16-292).
T2 construct: extracellular domain
Put plainly: SPR (Biacore), antibody captured, FcγR as analyte.

The target of test [3] is T3, FcγRIIIa type V (allotype V158) extracellular domain with C-terminal His tag (human, UniProt P08637 17-208).
T3 construct: extracellular domain; also called FcγRIIIaV; FcγRIIIa V type
Put plainly: SPR (Biacore), antibody captured, FcγR as analyte.

For test [4], the target named is T4, FcγRIIa type R (allotype R131) extracellular domain with C-terminal His tag (human, UniProt P12318 34-217).
T4 construct: extracellular domain; also called FcγRIIaR; FcγRIIa R type
T4 sequence (looked up): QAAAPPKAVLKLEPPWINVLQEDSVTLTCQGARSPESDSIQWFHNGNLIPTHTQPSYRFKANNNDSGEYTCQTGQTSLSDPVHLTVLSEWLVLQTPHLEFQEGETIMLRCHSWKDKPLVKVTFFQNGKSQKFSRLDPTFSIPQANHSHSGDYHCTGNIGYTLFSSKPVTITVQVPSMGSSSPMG
Put plainly: SPR (Biacore), antibody captured, FcγR as analyte. For orientation: In SPR one partner is held on a chip, and binding of the other changes the refractive index at the surface.

Test [5] deals with T5, FcγRIIb extracellular domain with C-terminal His tag (human, UniProt P31994 43-217).
T5 construct: extracellular domain
T5 sequence (looked up): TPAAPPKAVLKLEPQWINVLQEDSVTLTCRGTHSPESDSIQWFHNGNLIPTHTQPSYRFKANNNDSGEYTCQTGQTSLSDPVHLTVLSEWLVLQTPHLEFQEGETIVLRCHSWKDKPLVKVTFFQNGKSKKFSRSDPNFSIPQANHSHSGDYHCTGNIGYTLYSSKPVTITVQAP
Put plainly: SPR (Biacore), antibody captured, FcγR as analyte.

Test [6] deals with T6, human FcγRIIb extracellular domain with C-terminal His tag (human, UniProt P31994 43-217).
T6 sequence: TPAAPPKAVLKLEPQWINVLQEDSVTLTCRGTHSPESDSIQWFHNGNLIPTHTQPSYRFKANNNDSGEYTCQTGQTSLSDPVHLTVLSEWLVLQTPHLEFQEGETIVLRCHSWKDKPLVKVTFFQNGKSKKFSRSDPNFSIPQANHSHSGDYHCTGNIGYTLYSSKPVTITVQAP
The experiment in a line: ratio of SPR KDs (FcγRIIaR over FcγRIIb).

Test [7] concerns the target T1, human FcγRIIIa type V (allotype V158) …. Put plainly: SPR (Biacore), captured antibody, FcγR analyte. The source holds these as a separate data set.
Test [8] deals with T7, human FcγRIIa type H (allotype H131) extracellular domain with C-terminal His tag (human, UniProt P12318 34-217).
T7 construct: also called FcγRIIaH
T7 sequence: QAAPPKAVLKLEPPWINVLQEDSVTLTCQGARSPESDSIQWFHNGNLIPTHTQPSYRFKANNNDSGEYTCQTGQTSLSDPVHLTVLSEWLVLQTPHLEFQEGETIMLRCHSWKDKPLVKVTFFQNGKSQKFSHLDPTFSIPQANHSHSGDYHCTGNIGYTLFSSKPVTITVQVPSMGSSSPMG
The experiment in a line: SPR (Biacore), captured antibody, FcγR analyte.

The target in test [9] is T6, human FcγRIIb extracellular domain with …. The experiment in a line: SPR (Biacore), captured antibody, FcγR analyte.
Test [10] addresses human FcγRIa extracellular domain with C-terminal His tag (human, UniProt P12314 16-292). The experiment in a line: SPR (Biacore), captured antibody, FcγR analyte.
Test [11] has as its target T8, human FcγRIIa type R (allotype R131) extracellular domain with C-terminal His tag (human, UniProt P12318 34-217).
T8 construct: also called FcγRIIaR
T8 chain: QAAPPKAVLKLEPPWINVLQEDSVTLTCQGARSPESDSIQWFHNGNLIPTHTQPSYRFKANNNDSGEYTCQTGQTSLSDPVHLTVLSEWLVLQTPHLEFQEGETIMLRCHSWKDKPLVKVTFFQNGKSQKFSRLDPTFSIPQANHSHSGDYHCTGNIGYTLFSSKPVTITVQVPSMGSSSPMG
Put plainly: SPR (Biacore), captured antibody, FcγR analyte.

The target in test [12] is T6, human FcγRIIb extracellular domain with …. The experiment in a line: ratio of SPR KDs, reference IL6R-B3/IL6R-L.
The target of test [13] is T8, human FcγRIIa type R (allotype R131) …. The experiment in a line: ratio of SPR KDs, reference IL6R-B3/IL6R-L.
For test [14], the target named is T9, FcγRIIaR extracellular region (human, UniProt P12318 34-217).
T9 construct: extracellular domain; also called FcγRIIa type R; FcγRIIa allotype R131
T9 sequence (looked up): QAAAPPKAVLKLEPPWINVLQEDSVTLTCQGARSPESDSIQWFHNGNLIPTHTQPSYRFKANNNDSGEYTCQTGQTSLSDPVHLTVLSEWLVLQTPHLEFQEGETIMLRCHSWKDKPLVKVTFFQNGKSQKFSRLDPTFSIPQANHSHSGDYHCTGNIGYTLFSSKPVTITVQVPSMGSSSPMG
The experiment in a line: SPR (Biacore), ratio of KD values.

Test [15] concerns the target T10, FcγRIIb extracellular region (human, UniProt P31994 43-217).
T10 construct: extracellular domain; for crystals expressed with kifunensine and trimmed with Endo F1; also called human FcγRIIb
T10 sequence (looked up): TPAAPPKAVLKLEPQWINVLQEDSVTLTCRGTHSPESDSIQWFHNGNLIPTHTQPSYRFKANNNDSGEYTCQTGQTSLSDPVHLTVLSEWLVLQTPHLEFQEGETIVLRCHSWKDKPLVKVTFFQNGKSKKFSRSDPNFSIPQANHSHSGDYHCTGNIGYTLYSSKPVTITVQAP
Put plainly: SPR (Biacore), ratio of KD values.

For test [16], the target named is T11, human FcRn (human, UniProt P55899 24-290; P61769 21-119, limits assumed).
T11 construct: also called human neonatal Fc receptor
The experiment in a line: SPR Biacore, pH 7.0. As to the method: (§1) The binding between the antibody and human FcRn under a neutral condition (pH 7.0) was analyzed with a BIACORE™ system.
T11 sequence (P55899 24-290 limits assumed, chain 1 of 2): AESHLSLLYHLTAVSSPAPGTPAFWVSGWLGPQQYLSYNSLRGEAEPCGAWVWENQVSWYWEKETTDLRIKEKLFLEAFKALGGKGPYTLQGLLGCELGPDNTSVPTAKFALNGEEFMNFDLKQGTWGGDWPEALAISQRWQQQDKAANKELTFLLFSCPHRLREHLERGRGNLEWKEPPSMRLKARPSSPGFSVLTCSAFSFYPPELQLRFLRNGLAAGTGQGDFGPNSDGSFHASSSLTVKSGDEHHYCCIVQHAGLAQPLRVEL
T11 sequence (P61769 21-119 limits assumed, chain 2 of 2): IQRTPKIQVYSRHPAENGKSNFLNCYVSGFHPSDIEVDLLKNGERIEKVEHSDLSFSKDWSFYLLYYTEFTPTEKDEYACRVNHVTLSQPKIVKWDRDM

The target of test [17] is T12, human FcRn (human, UniProt P55899 24-290; P61769 21-119, limits assumed).
T12 construct: also called hFcRn
The experiment in a line: SPR (Biacore), pH 7.0. As to the method:
as §1
T12 sequence (P55899 24-290 limits assumed, chain 1 of 2): as the sequence (P55899 24-290 limits assumed, chain 1 of 2) above
T12 sequence (P61769 21-119 limits assumed, chain 2 of 2): as the sequence (P61769 21-119 limits assumed, chain 2 of 2) above

For orientation: Kd means the constant that tells how readily two partners part at equilibrium. A lower Kd goes with higher affinity.

Read-outs that look alike come from different tables or passages of the source.

T1 sequence (P08637 other isoform, or with tags, fused parts or gaps): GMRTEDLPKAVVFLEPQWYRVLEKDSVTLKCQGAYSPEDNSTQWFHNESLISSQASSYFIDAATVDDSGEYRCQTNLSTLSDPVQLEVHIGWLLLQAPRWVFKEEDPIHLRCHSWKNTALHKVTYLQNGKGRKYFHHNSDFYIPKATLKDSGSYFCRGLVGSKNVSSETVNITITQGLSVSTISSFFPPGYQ
Chain of human FcγRIa extracellular domain with C-terminal His tag (P12314 16-292): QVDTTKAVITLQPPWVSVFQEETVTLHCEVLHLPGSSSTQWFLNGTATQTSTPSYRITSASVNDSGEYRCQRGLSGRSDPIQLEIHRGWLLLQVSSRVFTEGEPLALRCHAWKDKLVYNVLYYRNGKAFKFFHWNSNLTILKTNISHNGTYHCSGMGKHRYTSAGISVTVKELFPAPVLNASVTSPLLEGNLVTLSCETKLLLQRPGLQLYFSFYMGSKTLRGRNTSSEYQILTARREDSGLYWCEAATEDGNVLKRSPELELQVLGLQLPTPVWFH
T2 sequence (P12314 16-292): as above
T3 sequence (P08637 17-208 F176V): as the sequence (P08637 other isoform, or with tags, fused parts or gaps) above, with S179A counted along it

B1: IL6R-BP462/IL6R-L (antibody, human IgG1, kappa, name in EU numbering)
heavy: QVQLQESGPGLVKPSETLSLTCAVSGHSISHDHAWSWVRQPPGEGLEWIGFISYSGITNYNPSLQGRVTISRDNSKNTLYLQMNSLRAEDTAVYYCARSLARTTAMDYWGEGTLVTVSSASTKGPSVFPLAPSSKSTSGGTAALGCLVKDYFPEPVTVSWNSGALTSGVHTFPAVLQSSGLYSLSSVVTVPSSSLGTQTYICNVNHKPSNTKVDKKVEPKSCDKTHTCPPCPAPDLLGDDSVFLFPPKPKDTLMISRTPEVTCVVVDVAEEDGEVKFNWYVDGVEVHNAKTKPREEQYNSTYRVVSVLTVLHQDWLNGKEYKCKVSNKALPRPIEKTISKAKGQPREPQVYTLPPSRDELTKNQVSLTCLVKGFYPSDIAVEWESNGQPENNYKTTPVVLDSDGSFFLYSKLTVDKSRWQQGNVFSCSVMHEALHNHYTQESLSLSP
light: not shown
notes: copies: 2 + 2
For B1, binding in [1] was characterised by a dissociation constant (Kd) of 9000 nM. This lies in the single-digit micromolar range.

B2: IL6R-BP253/IL6R-L (antibody, human IgG1, kappa, name in EU numbering)
heavy: QVQLQESGPGLVKPSETLSLTCAVSGHSISHDHAWSWVRQPPGEGLEWIGFISYSGITNYNPSLQGRVTISRDNSKNTLYLQMNSLRAEDTAVYYCARSLARTTAMDYWGEGTLVTVSSASTKGPSVFPLAPSSKSTSGGTAALGCLVKDYFPEPVTVSWNSGALTSGVHTFPAVLQSSGLYSLSSVVTVPSSSLGTQTYICNVNHKPSNTKVDKKVEPKSCDKTHTCPPCPAPELLGGPSVFLFPPKPKDTLMISRTPEVTCVVVDVEHEDPEVKFNWYVDGVEVHNAKTKPREEQYNSTYRVVSVLTVLHQDWLNGKEYKCKVSNKAFPAPIEKTISKAKGQPREPQVYTLPPSRDELTKNQVSLTCLVKGFYPSDIAVEWESNGQPENNYKTTPPVLDSDGSFFLYSKLTVDKSRWQQGNVFSCSVMHEALHNHYTQESLSLSP
light: not shown
notes: comparison control with existing alterations; copies: 2 + 2
Consider B2, for which the dissociation constant (Kd) in [2] was determined as 0.0067 nM; in test [3] it was 3600 nM; in test [4] it was 2.1 nM; in test [5], 11 nM.

B3: IL6R-BP478/IL6R-L (antibody)
heavy: QVQLQESGPGLVKPSETLSLTCAVSGHSISHDHAWSWVRQPPGEGLEWIGFISYSGITNYNPSLQGRVTISRDNSKNTLYLQMNSLRAEDTAVYYCARSLARTTAMDYWGEGTLVTVSSASTKGPSVFPLAPCSRSTSESTAALGCLVKDYFPEPVTVSWNSGALTSGVHTFPAVLQSSGLYSLSSVVTVPSSSLGTKTYTCNVDHKPSNTKVDKRVESKYGPPCPPCPAPDLLGDDSVFLFPPKPKDTLMISRTPEVTCVVVDVSDEDGEVKFNWYVDGVEVHNAKTKPREEQDNSTYRVVSVLTVLHQDWLNGKEYKCKVSNKALPRPIEKTISKAKGQPREPQVYTLPPSRDELTKNQVSLTCLVKGFYPSDIAVEWESNGQPENNYKTTPPVLDSDGSFFLYSKLTVDKSRWQQGNVFSCSVMHEALHNHYTQESLSLSP
light: not shown
notes: copies: 2 + 2
On to B3, for which the “KD(IIaR)/KD(IIb)” value in test [6] was 28. Also, the Kd in test [7] was 35000 nM; in test [8], 6700 nM; in test [9] it was 19 nM; in test [10] it was 7.7 nM; in [11], 540 nM. In test [12], the “KD(IIb) of parent polypeptide/KD(IIb) of altered polypeptide” value was 161. Also, in test [13], the “KD(IIaR) of parent polypeptide/KD(IIaR) of altered polypeptide” value came out at 2.

B4: IL6R-BP478/IL6R-L (antibody)
heavy: QVQLQESGPGLVKPSETLSLTCAVSGHSISHDHAWSWVRQPPGEGLEWIGFISYSGITNYNPSLQGRVTISRDNSKNTLYLQMNSLRAEDTAVYYCARSLARTTAMDYWGEGTLVTVSSASTKGPSVFPLAPCSRSTSESTAALGCLVKDYFPEPVTVSWNSGALTSGVHTFPAVLQSSGLYSLSSVVTVPSSSLGTKTYTCNVDHKPSNTKVDKRVESKYGPPCPPCPAPDLLGDDSVFLFPPKPKDTLMISRTPEVTCVVVDVSDEDGEVKFNWYVDGVEVHNAKTKPREEQDNSTYRVVSVLTVLHQDWLNGKEYKCKVSNKALPRPIEKTISKAKGQPREPQVYTLPPSRDELTKNQVSLTCLVKGFYPSDIAVEWESNGQPENNYKTTPPVLDSDGSFFLYSKLTVDKSRWQQGNVFSCSVMHEALHNHYTQESLSLSP
light: not shown
notes: copies: 2 + 2
As for B4, the “fold binding relative to IL6R-BP230/IL6R-L” value in [14] was determined as 0.9 times; in [15], 1.1 times.

B5: F414 (antibody, human IgG1, kappa)
heavy: QVQLQESGPGLVKPSETLSLTCAVSGHSISHDHAWSWVRQPPGEGLEWIGFISYSGITNYNPSLQGRVTISRDNSKNTLYLQMNSLRAEDTAVYYCARSLARTTAMDYWGEGTLVTVSSASTKGPSVFPLAPSSKSTSGGTAALGCLVKDYFPEPVTVSWNSGALTSGVHTFPAVLQSSGLYSLSSVVTVPSSSLGTQTYICNVNHKPSNTKVDKKVEPKSCDKTHTCPPCPAPELLGGPSVFLFPPKPKDTLMISRTVEVTCVVVDVSHEDPEVKFNWYVDGVEVHNAKTKPREEQYNSTYRVVSVLSVLHQDWLNGKEYKCKVSNKALPAPIEKTISKAKGQPREPQVYTLPPSRDELTKNQVSLTCLVKGFYPSDIAVEWESNGQPENNYKTTPPVLDSDGSFFLYSKLTVDKSRWQQGNVFSCSVLHEALHYHYTQKSLSLSP
light: not shown
notes: copies: 2 + 2
B5: the dissociation constant Kd with human FcRn [16] was 110 nM. This lies in the sub-micromolar range.

B6: F554 (antibody, human IgG1, kappa)
heavy: QVQLQESGPGLVKPSETLSLTCAVSGHSISHDHAWSWVRQPPGEGLEWIGFISYSGITNYNPSLQGRVTISRDNSKNTLYLQMNSLRAEDTAVYYCARSLARTTAMDYWGEGTLVTVSSASTKGPSVFPLAPSSKSTSGGTAALGCLVKDYFPEPVTVSWNSGALTSGVHTFPAVLQSSGLYSLSSVVTVPSSSLGTQTYICNVNHKPSNTKVDKKVEPKSCDKTHTCPPCPAPELLGGPKVFLFPPKPKDTLYITRTPEVTCVVVDVSHEDPEVKFNWYVDGVEVHNAKTKPREEQYNSTYRVVSVLTPLHQDWLNGKEYKCKVSNKALPAPIEKTISKAKGQPREPQVYTLPPSRDELTKNQVSLTCLVKGFYPSDIAVEWESNGQPENNYKTTPPVLDSDGSFFLYSKLTVDKSRWQQGNVFSCSVMHEALHYHYTQKSLSLSP
light: not shown
notes: copies: 2 + 2
In the test with human FcRn [17], B6 came in with a Kd of 28 nM.
